Data on two molecules can be found in publication PMC10329844, “Regulatory architecture of housekeeping genes is driven by promoter assemblies”.

Series [1] addresses T1, Ronin (Thap11), Prospec PRO-2009 (UniProt Q96EK4 1-314). Kind of series: competition; abolishes Ronin-stimulated circularization of N3; Circularization: 1x T4 ligase buffer, 100 ng DNA, 1.358 uM protein, 10 uL, 25 min RT, then ligase 20 min RT. AFM: 1x LightShift binding buffer, 350 mM KCl, 1 mM EDTA, 6% glycerol, 10 min on ice, then 0.4x T4 ligase buffer, 20% glycerol, 1 mM EDTA, 2 mM GTP, 30 min RT. As to conditions: protein: commercial; blunt.

Series [2] has as its target T1, Ronin (Thap11), Prospec PRO-2009. Kind of series: competition; no effect on Ronin-stimulated circularization of N3; Circularization: 1x T4 ligase buffer, 100 ng DNA, 1.358 uM protein, 10 uL, 25 min RT, then ligase 20 min RT. AFM: 1x LightShift binding buffer, 350 mM KCl, 1 mM EDTA, 6% glycerol, 10 min on ice, then 0.4x T4 ligase buffer, 20% glycerol, 1 mM EDTA, 2 mM GTP, 30 min RT. To be noted: protein: commercial; blunt.

T1 sequence (Q96EK4 whole entry): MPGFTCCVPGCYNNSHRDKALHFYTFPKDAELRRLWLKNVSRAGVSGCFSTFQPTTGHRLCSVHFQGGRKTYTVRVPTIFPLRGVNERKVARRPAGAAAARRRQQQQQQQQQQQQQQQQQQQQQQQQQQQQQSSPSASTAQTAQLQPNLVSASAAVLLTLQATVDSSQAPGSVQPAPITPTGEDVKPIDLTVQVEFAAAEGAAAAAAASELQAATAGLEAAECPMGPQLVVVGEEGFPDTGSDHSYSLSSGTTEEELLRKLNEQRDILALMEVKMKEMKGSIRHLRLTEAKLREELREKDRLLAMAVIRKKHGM

B1: C1 competitor (RBM in random flanks) (dsDNA)
DNA 1: ACTAGCTCTCTGGGAATTGTAGTTCGGCAATCTCT
DNA 2: AGAGATTGCCGAACTACAATTCCCAGAGAGCTAGT
Turning to B1, the binding result in series [1] was “binds”.

B2: C2 competitor (both RBM half-sites mutated) (dsDNA)
DNA 1: ACTAGCTCTTGATTCCGGAGCTGGAGGCAATCTCT
DNA 2: AGAGATTGCCTCCAGCTCCGGAATCAAGAGCTAGT
For B2, in series [2], the binding result was “no binding”.
